# Measurements as given in the supplement of paper PMC9112550, “Optimization of the antimicrobial peptide Bac7 by deep mutational scanning” (BMC Biology, 2022).
# Test system: Escherichia coli TOP10
# Experiment: shrunken log2 fold change of peptide-encoding DNA abundance (4.5 h post-induction vs induction); higher = less antimicrobial activity (less host growth inhibition)
# Conditions: time post-induction: 4.5 h; library: site-saturation at positions 5, 18, 19, 20
# 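Further: peptides expressed intracellularly from a pBAD plasmid library in pooled LB shake-flask culture, induced with 0.3% L-arabinose, DNA abundance read by NGS, three biological replicates, DESeq2 with apeglm shrinkage.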
row,Sequence,shrunken log2 fold change
1,RRIRTRPPRLPRPRPRPMLQPRP,0.00738
2,RRIRERPPRLPRPRPRPINDPRP,-0.223
3,RRIRMRPPRLPRPRPRPISIPRP,-0.313
4,RRIRPRPPRLPRPRPRPQHYPRP,-0.675
5,RRIRHRPPRLPRPRPRPAIVPRP,-0.167
6,RRIRHRPPRLPRPRPRPNCHPRP,-0.444
7,RRIRHRPPRLPRPRPRPTWWPRP,0.368
8,RRIRTRPPRLPRPRPRPTIMPRP,-0.597
9,RRIRGRPPRLPRPRPRPDMSPRP,0.0457
10,RRIRTRPPRLPRPRPRPGKCPRP,0.0114
11,RRIRSRPPRLPRPRPRPKDGPRP,0.307
12,RRIRGRPPRLPRPRPRPYNGPRP,-0.0131
13,RRIRFRPPRLPRPRPRPTWSPRP,0.188
14,RRIRYRPPRLPRPRPRPLQYPRP,-0.624
15,RRIRHRPPRLPRPRPRPWWAPRP,-0.162
16,RRIRHRPPRLPRPRPRPWIGPRP,-0.0136
17,RRIRTRPPRLPRPRPRPAIPPRP,-0.212
18,RRIRGRPPRLPRPRPRPADPPRP,0.585
19,RRIRCRPPRLPRPRPRPFNQPRP,-0.421
20,RRIRERPPRLPRPRPRPGDEPRP,0.115
21,RRIRCRPPRLPRPRPRPHGYPRP,-0.108
22,RRIRYRPPRLPRPRPRPFTQPRP,-0.646
23,RRIRDRPPRLPRPRPRPARYPRP,0.0754
24,RRIRLRPPRLPRPRPRPNVFPRP,-0.301
25,RRIRERPPRLPRPRPRPVRWPRP,0.635

row,Sequence,shrunken log2 fold change
1,RRIRPRPPRLPRPRPRPVPKPRP,0.34
2,RRIRARPPRLPRPRPRPFLMPRP,0.791
3,RRIRLRPPRLPRPRPRPMMAPRP,-0.137
4,RRIRWRPPRLPRPRPRPCSYPRP,-0.0533
5,RRIRVRPPRLPRPRPRPDSIPRP,-0.149
6,RRIRGRPPRLPRPRPRPNYGPRP,0.07
7,RRIRWRPPRLPRPRPRPNKKPRP,-0.076
8,RRIRRRPPRLPRPRPRPDECPRP,0.746
9,RRIRWRPPRLPRPRPRPWRFPRP,0.0309
10,RRIRGRPPRLPRPRPRPSCEPRP,0.507
11,RRIRFRPPRLPRPRPRPHRHPRP,-0.333
12,RRIRARPPRLPRPRPRPLSFPRP,0.0158
13,RRIRIRPPRLPRPRPRPALTPRP,0.0227
14,RRIRRRPPRLPRPRPRPCMAPRP,0.61
15,RRIRPRPPRLPRPRPRPMCKPRP,-0.274
16,RRIRFRPPRLPRPRPRPNHAPRP,0.0222
17,RRIRIRPPRLPRPRPRPMAGPRP,0.022
18,RRIRLRPPRLPRPRPRPLMYPRP,-0.327
19,RRIRVRPPRLPRPRPRPMQKPRP,0.533
20,RRIRPRPPRLPRPRPRPRCEPRP,0.809
21,RRIRERPPRLPRPRPRPLTFPRP,-0.693
22,RRIRDRPPRLPRPRPRPQECPRP,0.0795
23,RRIRMRPPRLPRPRPRPFVQPRP,-0.216
24,RRIRPRPPRLPRPRPRPMQCPRP,0.00596
25,RRIRPRPPRLPRPRPRPYSAPRP,-1.14

row,Sequence,shrunken log2 fold change
1,RRIRMRPPRLPRPRPRPEQCPRP,-0.00138
2,RRIRDRPPRLPRPRPRPMHFPRP,-0.142
3,RRIRIRPPRLPRPRPRPAMTPRP,-0.366
4,RRIRNRPPRLPRPRPRPWGQPRP,0.0191
5,RRIRFRPPRLPRPRPRPLGCPRP,0.121
6,RRIRARPPRLPRPRPRPQKKPRP,-0.0278
7,RRIRYRPPRLPRPRPRPPIFPRP,-0.381
8,RRIRIRPPRLPRPRPRPYQCPRP,-0.349
9,RRIRHRPPRLPRPRPRPNETPRP,0.00408
10,RRIRQRPPRLPRPRPRPCDVPRP,-0.15
11,RRIRDRPPRLPRPRPRPTALPRP,0.573
12,RRIRYRPPRLPRPRPRPPCEPRP,-0.468
13,RRIRDRPPRLPRPRPRPIPVPRP,-0.00774
14,RRIRWRPPRLPRPRPRPCCHPRP,-0.169
15,RRIRDRPPRLPRPRPRPAISPRP,-0.0409
16,RRIRNRPPRLPRPRPRPVLAPRP,0.093
17,RRIRIRPPRLPRPRPRPVFMPRP,-0.275
18,RRIRARPPRLPRPRPRPPWRPRP,0.816
19,RRIRGRPPRLPRPRPRPWNPPRP,-0.448
20,RRIRCRPPRLPRPRPRPDVVPRP,-0.00174
21,RRIRPRPPRLPRPRPRPWYSPRP,-0.22
22,RRIRYRPPRLPRPRPRPMSYPRP,-0.0389
23,RRIRKRPPRLPRPRPRPVDGPRP,0.344
24,RRIRTRPPRLPRPRPRPGLVPRP,0.0962
25,RRIRDRPPRLPRPRPRPAWQPRP,0.861

row,Sequence,shrunken log2 fold change
1,RRIRNRPPRLPRPRPRPHVKPRP,-0.17
2,RRIRQRPPRLPRPRPRPSLNPRP,-0.216
3,RRIRKRPPRLPRPRPRPFASPRP,0.193
4,RRIRKRPPRLPRPRPRPLMTPRP,0.175
5,RRIRERPPRLPRPRPRPDPYPRP,-0.0291
6,RRIRCRPPRLPRPRPRPNSEPRP,-0.398
7,RRIRERPPRLPRPRPRPLECPRP,-0.498
8,RRIRTRPPRLPRPRPRPLICPRP,-0.277
9,RRIRRRPPRLPRPRPRPWGGPRP,0.53
10,RRIRRRPPRLPRPRPRPSRTPRP,0.141
11,RRIRPRPPRLPRPRPRPYCLPRP,-0.115
12,RRIRVRPPRLPRPRPRPGFSPRP,-0.101
13,RRIRSRPPRLPRPRPRPSVGPRP,0.0671
14,RRIRSRPPRLPRPRPRPCCSPRP,-0.00502
15,RRIRLRPPRLPRPRPRPFAKPRP,-0.118
16,RRIRARPPRLPRPRPRPGKCPRP,0.0981
17,RRIRFRPPRLPRPRPRPLREPRP,0.618
18,RRIRPRPPRLPRPRPRPVMYPRP,-0.0963
19,RRIRYRPPRLPRPRPRPAVYPRP,-0.0166
20,RRIRARPPRLPRPRPRPKYTPRP,-0.013
21,RRIRPRPPRLPRPRPRPPEYPRP,-0.558
22,RRIRVRPPRLPRPRPRPGFLPRP,0.101
23,RRIRMRPPRLPRPRPRPDCQPRP,1.37
24,RRIRFRPPRLPRPRPRPLKIPRP,-0.24
25,RRIRCRPPRLPRPRPRPESIPRP,-0.263

row,Sequence,shrunken log2 fold change
1,RRIRLRPPRLPRPRPRPITAPRP,-0.0526
2,RRIRFRPPRLPRPRPRPDLIPRP,-0.0121
3,RRIRLRPPRLPRPRPRPILIPRP,0.198
4,RRIRVRPPRLPRPRPRPRLPPRP,0.636
5,RRIRKRPPRLPRPRPRPWETPRP,0.696
6,RRIRYRPPRLPRPRPRPVNCPRP,0.0039
7,RRIRPRPPRLPRPRPRPCLEPRP,-0.0989
8,RRIRDRPPRLPRPRPRPYTIPRP,-0.0747
9,RRIRIRPPRLPRPRPRPVCMPRP,-0.564
10,RRIRERPPRLPRPRPRPLVEPRP,-0.229
11,RRIRYRPPRLPRPRPRPFVKPRP,-0.79
12,RRIRRRPPRLPRPRPRPWWEPRP,1.82
13,RRIRCRPPRLPRPRPRPSMMPRP,-0.307
14,RRIRVRPPRLPRPRPRPPSEPRP,-0.124
15,RRIRARPPRLPRPRPRPHFFPRP,1.8
16,RRIRLRPPRLPRPRPRPAIHPRP,-0.192
17,RRIRFRPPRLPRPRPRPPYQPRP,-0.125
18,RRIRTRPPRLPRPRPRPPRIPRP,0.27
19,RRIRGRPPRLPRPRPRPTIMPRP,0.365
20,RRIRGRPPRLPRPRPRPWMLPRP,0.0888
21,RRIRPRPPRLPRPRPRPAVVPRP,0.197
22,RRIRARPPRLPRPRPRPQQEPRP,-0.0196
23,RRIRFRPPRLPRPRPRPNPIPRP,-0.423
24,RRIRIRPPRLPRPRPRPCWIPRP,-0.222
25,RRIRNRPPRLPRPRPRPPYEPRP,-0.18

row,Sequence,shrunken log2 fold change
1,RRIRGRPPRLPRPRPRPAIKPRP,0.534
2,RRIRERPPRLPRPRPRPVQWPRP,0.149
3,RRIRDRPPRLPRPRPRPFQEPRP,-0.137
4,RRIRHRPPRLPRPRPRPSNMPRP,-1.48
5,RRIRFRPPRLPRPRPRPPISPRP,-0.239
6,RRIRPRPPRLPRPRPRPMHWPRP,0.335
7,RRIRKRPPRLPRPRPRPAVMPRP,0.881
8,RRIRIRPPRLPRPRPRPTQLPRP,0.31
9,RRIRQRPPRLPRPRPRPPKFPRP,0.117
10,RRIRWRPPRLPRPRPRPDEIPRP,0.0148
11,RRIRERPPRLPRPRPRPFWMPRP,-0.262
12,RRIRPRPPRLPRPRPRPRTNPRP,-0.0218
13,RRIRYRPPRLPRPRPRPSDRPRP,-0.307
14,RRIRQRPPRLPRPRPRPNISPRP,-0.565
15,RRIRQRPPRLPRPRPRPQWLPRP,0.0957
16,RRIRVRPPRLPRPRPRPMQEPRP,-0.0018
17,RRIRDRPPRLPRPRPRPSMRPRP,0.334
18,RRIRQRPPRLPRPRPRPRLCPRP,0.423
19,RRIRCRPPRLPRPRPRPDCLPRP,-0.494
20,RRIRQRPPRLPRPRPRPGFCPRP,0.159
21,RRIRMRPPRLPRPRPRPPPVPRP,1.65
22,RRIRCRPPRLPRPRPRPTIEPRP,-0.276
23,RRIRLRPPRLPRPRPRPWMMPRP,0.00744
24,RRIRWRPPRLPRPRPRPLTSPRP,-0.101
25,RRIRWRPPRLPRPRPRPLAEPRP,1.13
